Article PMC7954794, “Protein context shapes the specificity of SH3 domain-mediated interactions in vivo” (Nature Communications, 2021)

Tested on: PPIs identified as affected by the SH3 domain deletions
Test: Liquid DHFR-PCA low-throughput validation of PPIs affected by SH3 deletion (Fig. S1D-E)
Assay type: cell-based, Saccharomyces cerevisiae
Conditions: label = prey, liquid DHFR-PCA, prey _1 = lost, _2 = gained in screen
Procedure, shortened: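 Growth at 30 °C was tracked by OD each 15 min over 72 h in agar-free PCA selection medium, starting at 0.1 OD. Cells were diploids selected after mating, first cultured 48 h with NAT and HPH in synthetic complete MSG medium, pH 6.0.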

B1: YJL020C_1 (protein, UniProt P47068 1-1157, looked up)
Myosin tail …: MSEPEVPFKVVAQFPYKSDYEDDLNFEKDQEIIVTSVEDAEWYFGEYQDSNGDVIEGIFPKSFVAVQGSEVGKEAESSPNTGSTEQRTIQPEVEQKDLPEPISPETKKETLSGPVPVPAATVPVPAATVPVPAATAVSAQVQHDSSSGNGERKVPMDSPKLKARLSMFNQDITEQVPLPKSTHLDLENIPVKKTIVADAPKYYVPPGIPTNDTSNLERKKSLKENEKKIVPEPINRAQVESGRIETENDQLKKDLPQMSLKERIALLQEQQRLQAAREEELLRKKAKLEQEHERSAVNKNEPYTETEEAEENEKTEPKPEFTPETEHNEEPQMELLAHKEITKTSREADEGTNDIEKEQFLDEYTKENQKVEESQADEARGENVAEESEIGYGHEDREGDNDEEKEEEDSEENRRAALRERMAKLSGASRFGAPVGFNPFGMASGVGNKPSEEPKKKQHKEKEEEEPEQLQELPRAIPVMPFVDPSSNPFFRKSNLSEKNQPTETKTLDPHATTEHEQKQEHGTHAYHNLAAVDNAHPEYSDHDSDEDTDDHEFEDANDGLRKHSMVEQAFQIGNNESENVNSGEKIYPQEPPISHRTAEVSHDIENSSQNTTGNVLPVSSPQTRVARNGSINSLTKSISGENRRKSINEYHDTVSTNSSALTETAQDISMAAPAAPVLSKVSHPEDKVPPHPVPSAPSAPPVPSAPSVPSAPPVPPAPPALSAPSVPPVPPVPPVSSAPPALSAPSIPPVPPTPPAPPAPPAPLALPKHNEVEEHVKSSAPLPPVSEEYHPMPNTAPPLPRAPPVPPATFEFDSEPTATHSHTAPSPPPHQNVTASTPSMMSTQQRVPTSVLSGAEKESRTLPPHVPSLTNRPVDSFHESDTTPKVASIRRSTTHDVGEISNNVKIEFNAQERWWINKSAPPAISNLKLNFLMEIDDHFISKRLHQKWVVRDFYFLFENYSQLRFSLTFNSTSPEKTVTTLQERFPSPVETQSARILDEYAQRFNAKVVEKSHSLINSHIGAKNFVSQIVSEFKDEVIQPIGARTFGATILSYKPEEGIEQLMKSLQKIKPGDILVIRKAKFEAHKKIGKNEIINVGMDSAAPYSSVVTDYDFTKNKFRVIENHEGKIIQNSYKLSHMKSGKLKVFRIVARGYVGW
For B1, the “Ratio (Deletedscore / WTscore)” value (bait MYO3) was 0.4075 and the “Ratio (Deletedscore / WTscore)” value (bait MYO5) was 0.4895.

B2: YOL100W_1 (protein, UniProt Q12236 1-1081, looked up)
Serine/threonine-protein …: MYFDKDNSMSPRPLLPSDEQKLNINLLTKKEKFSHLDPHYDAKATPQRSTSNRNVGDLLLEKRTAKPMIQKALTNTDNFIEMYHNQQRKNLDDDTIKEVMINDENGKTVASTNDGRYDNDYDNNDINDQKTLDNIAGSPHMEKNRNKVKIEHDSSSQKPIAKESSKAQKNIIKKGIKDFKFGSVIGDGAYSTVMLATSIDTKKRYAAKVLNKEYLIRQKKVKYVSIEKTALQKLNNSPSVVRLFSTFQDESSLYFLLEYAPNGDFLSLMKKYGSLDETCARYYAAQIIDAIDYLHSNGIIHRDIKPENILLDGEMKIKLTDFGTAKLLNPTNNSVSKPEYDLSTRSKSFVGTAEYVSPELLNDSFTDYRCDIWAFGCILFQMIAGKPPFKATNEYLTFQKVMKVQYAFTPGFPLIIRDLVKKILVKNLDRRLTISQIKEHHFFKDLNFKDGSVWSKTPPEIKPYKINAKSMQAMPSGSDRKLVKKSVNTLGKSHLVTQRSASSPSVEETTHSTLYNNNTHASTESEISIKKRPTDERTAQILENARKGINNRKNQPGKRTPSGAASAALAASAALTKKTMQSYPTSSSKSSRSSSPATTSRPGTYKRTSSTESKPFAKSPPLSASVLSSKVPMPPYTPPMSPPMTPYDTYQMTPPYTTKQQDYSDTAIAAPKPCISKQNVKNSTDSPLMNKQDIQWSFYLKNINEHVLRTEKLDFVTTNYDILEKKMLKLNGSLLDPQLFGKPRHTFLSQVARSGGEVTGFRNDPTMTAYSKTEDTYYSKNIIDLQLLEDDYRIEGGDLSELLTNRSGEGYKCNQNSSPMKDDDKSESNNKGSSVFSGKIKKLFHPTSAAETLSSSDEKTKYYKRTIVMTSFGRFLVFAKRRQPNPVTNLKYELEYDINLRQQGTKIKELIIPLEMGTNHIVVIQTPYKSFLLSTDKKTTSKLFTVLKKILNSNTNKIEKELLQRNQKVIERRTSSSGRAIPKDLPTSKSPSPKPRTHSQSPSISKHNSFSESINSAKSNRSSRIFETFINAKEQNSKKHAAPVPLTSKLVNGLPKRQVTVGLGLNTGTNFKNSSAKSKRS
For B2, the “Ratio (Deletedscore / WTscore)” value (bait MYO3) was 0.53.

B3: YNL106C_1 (protein, UniProt P50942 1-1183, looked up)
Polyphosphatidylinositol …: MKILLSKQQTRKIAIVSETHGLVFRPINSKNSRRSTCAVELVPKAELNGNGFRRLSNHEIYGFIGLIEIEGLMFIATITGKSKVAQPIPNKTVNKIYAVDFFCLNNSKWDFMDIDSSGYPIVTNDGDFAISSPPSISTHSSRSSLRSSSSRSLNAQEQAPKHPCHELRKLLSNGSFYYSTDFDLTCTLQKRGFTEHSLSFDDFDREFMWNSFLMDEIITYRDRLDVTAKELLDQRGFLTTVIRGFAETIFSYINRLKVGLTIISRQSWKRAGTRFNARGIDDDGHVANFVETEMIMYSSQYCYAFTQIRGSLPIFWEQDTSLISPKIQITRSVEATQPTFDEHFIRLFKKYGPVHIINLLSTKSSEIQLSRRYKEQLKNSEKMKIGRDVFLTSFDFHRETSQDGFAAASRIIPKIRNTILDAGYFSYDVKEGRLISEQDGVFRTNCLDCLDRTNLIQQTISLAVFKLFLEDFRLVKPSSFIDDNEFVQKVNALWADNGDQISQIYTGTNALKSSYSRKGKMSFSGALSDATKSVSRMYINNFVDKGKQQNIDTLLGKLPHQQVVELYDPICEYVNERLLESEEKFTTHSNINLFVGTFNVNGNSRRADLSKWLFPIGDKFKPDVVVLGLQEVIELTAGSILNADYTKSSFWETMVTDCLNQYEEKYLLLRVEQMSSLLILFFARSDRAYNIKEVGGSTKKTGFGGITGNKGAVAIRFDYGATSFCFVNTHLSAGASNIDERRNDYNNIYRNITFPRSKTIPHHDSLFWLGDLNYRITLTNDEVRRELRAQKDGYIDRLLQYDQLTQEINEGVVFQGFKEPTLQFRPTYKYDYGTDNYDTSEKARTPSWTDRIIYKGENLHPLAYSDAPLKISDHKPVYAAYRANVKFVDEKEKLNLVEKLYAEYKNTHPEALTTGPDELSHARMEKQKESIPLDATVQSAGIKLIDLDDTSSCVSPLLSGPSPQPSVVGPGGLSNVSPDKSKLNVLPPPPPTSRHNKEPSSKLLSPTKEISIVSVSPRKGESNLPALERHSTPKPLPPVPALSLSKPVSLQKSSSELQHAKETIDNGKIVPRPCPPIRRKSSTAPDEISTSTKNSGVSTTEDPEPAKASTKPEKPPVVKKPHYLSVAANKLNTSQEHSIKVSPSNSKSEEELPCKKKSKPKVPAKNPELEKLSVHPLKPCDPN
B3 was tested, and the “Ratio (Deletedscore / WTscore)” value (bait LSB3) was 0.7587.

B4: YJL095W_1 (protein, UniProt Q01389 1-1478, looked up)
Serine/threonine-protein …: MPFLRKIAGTAHTHSRSDSNSSVKFGHQPTSSVASTKSSSKSPRATSRKSIYDDIRSQFPNLTPNSTSSQFYESTPVIEQSFNWTTDDHISAGTLENPTSFTNSSYKNDNGPSSLSDSRKSSGGNSVNSLSFDKLILSWDPTDPDEWTMHRVTSWFKFHDFPESWILFFKKHQLFGHRFIKLLAYDNFAVYEKYLPQTKTASYTRFQQLLKKTMTKNVTNSHIRQKSASKLKSSRSSSESIKSKLKNSKSQEDISNSRSTSESALSPTKSGPSKTDEKNFLHSTSTHQKTKSASSLYRRSFISLRGSSSSNASSAKSPSNIKLSIPARPHSIIESNSTLTKSASPPASPSYPSIFRRHHKSSSSESSLLNSLFGSGIGEEAPTKPNPQGHSLSSENLAKGKSKHYETNVSSPLKQSSLPTSDDKGNLWNKFKRKSQIGVPSPNTVAYVTSQETPSLKSNSSTATLTVQTADVNIPSPSSSPPPIPKTANRSLEVISTEDTPKISSTTASFKETYPDCINPDKTVPVPVNNQKYSVKNFLLDQKFYPLKKTGLNDSENKYILVTKDNVSFVPLNLKSVAKLSSFKESALTKLGINHKNVTFHMTDFDCDIGAAIPDDTLEFLKKSLFLNTSGKIYIKDQMKLQQKPKPAPLTSENNVPLKSVKSKSSMRSGTSSLIASTDDVSIVTSSSDITSFDEHASGSGRRYPQTPSYYYDRVSNTNPTEELNYWNIKEVLSHEENAPKMVFKTSPKLELNLPDKGSKLNIPTPITENESKSSFQVLRKDEGTEIDFNHRRESPYTKPELAPKREAPKPPANTSPQRTLSTSKQNKPIRLVRASTKISRSKRSKPLPPQLLSSPIEASSSSPDSLTSSYTPASTHVLIPQPYKGANDVMRRLKTDQDSTSTSPSLKMKQKVNRSNSTVSTSNSIFYSPSPLLKRGNSKRVVSSTSAADIFEENDITFADAPPMFDSDDSDDDSSSSDDIIWSKKKTAPETNNENKKDEKSDNSSTHSDEIFYDSQTQDKMERKMTFRPSPEVVYQNLEKFFPRANLDKPITEGIASPTSPKSLDSLLSPKNVASSRTEPSTPSRPVPPDSSYEFIQDGLNGKNKPLNQAKTPKRTKTIRTIAHEASLARKNSVKLKRQNTKMWGTRMVEVTENHMVSINKAKNSKGEYKEFAWMKGEMIGKGSFGAVYLCLNVTTGEMMAVKQVEVPKYSSQNEAILSTVEALRSEVSTLKDLDHLNIVQYLGFENKNNIYSLFLEYVAGGSVGSLIRMYGRFDEPLIKHLTTQVLKGLAYLHSKGILHRDMKADNLLLDQDGICKISDFGISRKSKDIYSNSDMTMRGTVFWMAPEMVDTKQGYSAKVDIWSLGCIVLEMFAGKRPWSNLEVVAAMFKIGKSKSAPPIPEDTLPLISQIGRNFLDACFEINPEKRPTANELLSHPFSEVNETFNFKSTRLAKFIKSNDKLNSSKLRITSQENKTE
In the case of B4, the “Ratio (Deletedscore / WTscore)” value (bait NBP2) is reported as 0.6492.

B5: YNL287W_2 (protein, UniProt P32074 1-935, looked up)
Coatomer subunit gamma: MSAHTYKKFENSTSGDLPDKMTIYQDCMNTFNESPVNSKRCRLLISRLLRLLAQGETFPQNEATALFFSISKLFQHQNDPLRQAVYLAIKELSGISEDVLMATSSIMKDVQNGSDLIKPDAIRSLTYVLDESTAFSAERLLKSAVVSRHPSISSAALCTSYHLLPISEVTIRRFTNETQEAVLDLKQFPNQHGNSEYYPNSTYISQYHALGLLYQLKKTDKMALLKLVRHFSENNSMKNQLAKVELVKIVNDLIYRDPQLFSQFRPLLSDWLSNKFESVQLETAKLITSFATRNSRLVAPELYAAAISALQSLLTVPRVSSRFAALRILNRISMVSPEKIVVCNPELESLINDSNRNISTYAITTLLKTGTSKNISSLISTITNFIHDVSDDFKIIIIDAVRTLSLNFPQEWKSILNFLIDVLKNSEGGFKFKNSIVEALIDIVSFVPQSKELALENLCDFIEDCEFNEILVRILHLLGKEGPSAPNPSLYVRHIYNRVVLENSIIRSAAVVALSKFALTKNDPTLYESIISLLKRIANDKDDEVRDRATIALEFIDSARNKDDVIAQNLIESKYFYDIPSLESKLSSYISSNTDSFATAFDVNQVRKFTEDEMKAINLKRKQEQIFNQKSETTLDTTPEAESVPEKRADANSFAGPNLDDHQEDLLATKYADELLSIEQIKPFGQLVNSSRAISLTEPEAEFVVRGVKHLFKDNVVLQFNITNTLTDIALDNVSVVCTPEISDEAELEELFTLQVDRLLPSEEAACYVAFKKLDEIVMEGFLNNLTFTTKEINPDTNEPFDGDEGFQDEYEIDSIFLNAGDYVKSSFTGNFSATFDELPCEEVAVFNIQEDLSIQEVVDKIILNSSCLPVESTQFAPSDSNSHTLKLFGKSALTGSKVALQIKMIKSSKGLALKVHGKGEDSLLCSDLVNGLMQ
For B5, the “Ratio (Deletedscore / WTscore)” value (bait ABP1) was 1.101 and the “Ratio (Deletedscore / WTscore)” value (bait LSB3) was 1.751.
